Measured values taken from patent US7902330 (ALBERT EINSTEIN COLLEGE OF MEDICINE OF YESHIVA UNIVERSITY, dated 2011).
Starred links: 1 amine or outer side, 2 acyl side, 3 side chain; linkers in the order of their positions; H or OH if unused. Non-standard residues stand in square brackets, D forms with d. *: point of attachment. 4‑nitrohippuryl = O=C(NCC(=O)*)c1ccc([N+](=O)[O-])cc1; Benzoyl(4-(pyrrol-1-yl)) = O=C(c1ccc(-n2cccc2)cc1)*; bis(2,3-dihydroxybenzyl) = not defined here; Cysteamide = C(CS[*:3])N[*:1]; Dap = NC[C@H](N)C(=O)O

T1: protein kinase C τ (atypical; ι in the tables) (UniProt P41743 1-596)
T1 sequence (looked up): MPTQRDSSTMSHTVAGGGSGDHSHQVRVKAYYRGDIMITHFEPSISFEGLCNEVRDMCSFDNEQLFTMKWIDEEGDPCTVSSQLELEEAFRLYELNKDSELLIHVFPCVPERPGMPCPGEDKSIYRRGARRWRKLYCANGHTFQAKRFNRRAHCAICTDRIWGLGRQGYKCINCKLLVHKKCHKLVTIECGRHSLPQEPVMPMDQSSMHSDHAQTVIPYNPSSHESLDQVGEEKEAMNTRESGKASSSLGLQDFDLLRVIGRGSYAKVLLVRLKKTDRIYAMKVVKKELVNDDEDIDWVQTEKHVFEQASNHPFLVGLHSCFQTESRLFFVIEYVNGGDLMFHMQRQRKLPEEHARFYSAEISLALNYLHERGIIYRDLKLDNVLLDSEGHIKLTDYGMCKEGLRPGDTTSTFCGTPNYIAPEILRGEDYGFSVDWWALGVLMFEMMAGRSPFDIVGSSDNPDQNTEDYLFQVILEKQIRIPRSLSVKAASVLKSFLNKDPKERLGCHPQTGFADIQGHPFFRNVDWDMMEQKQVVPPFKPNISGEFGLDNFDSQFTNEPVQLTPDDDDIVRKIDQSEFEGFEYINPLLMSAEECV

T2: protein kinase C ζ (UniProt Q05513 1-592, limits assumed)
T2 sequence (looked up): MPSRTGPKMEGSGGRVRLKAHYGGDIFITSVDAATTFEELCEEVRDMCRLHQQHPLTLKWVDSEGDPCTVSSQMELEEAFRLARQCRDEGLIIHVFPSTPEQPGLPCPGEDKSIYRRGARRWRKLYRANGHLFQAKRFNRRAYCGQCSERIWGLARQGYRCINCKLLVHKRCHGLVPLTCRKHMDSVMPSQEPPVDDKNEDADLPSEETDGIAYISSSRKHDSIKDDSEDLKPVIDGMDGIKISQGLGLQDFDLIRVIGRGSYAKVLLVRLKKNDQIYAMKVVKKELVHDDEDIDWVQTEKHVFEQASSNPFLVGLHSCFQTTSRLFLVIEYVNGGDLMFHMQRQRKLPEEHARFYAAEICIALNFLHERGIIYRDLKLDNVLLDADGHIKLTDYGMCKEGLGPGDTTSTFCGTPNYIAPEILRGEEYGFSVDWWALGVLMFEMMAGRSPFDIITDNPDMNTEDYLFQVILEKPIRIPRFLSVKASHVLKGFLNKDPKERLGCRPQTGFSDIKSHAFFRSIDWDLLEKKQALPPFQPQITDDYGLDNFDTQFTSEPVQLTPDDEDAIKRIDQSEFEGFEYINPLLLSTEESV

T3: protein kinase C ε (UniProt Q02156 1-737, limits assumed)
T3 sequence (looked up): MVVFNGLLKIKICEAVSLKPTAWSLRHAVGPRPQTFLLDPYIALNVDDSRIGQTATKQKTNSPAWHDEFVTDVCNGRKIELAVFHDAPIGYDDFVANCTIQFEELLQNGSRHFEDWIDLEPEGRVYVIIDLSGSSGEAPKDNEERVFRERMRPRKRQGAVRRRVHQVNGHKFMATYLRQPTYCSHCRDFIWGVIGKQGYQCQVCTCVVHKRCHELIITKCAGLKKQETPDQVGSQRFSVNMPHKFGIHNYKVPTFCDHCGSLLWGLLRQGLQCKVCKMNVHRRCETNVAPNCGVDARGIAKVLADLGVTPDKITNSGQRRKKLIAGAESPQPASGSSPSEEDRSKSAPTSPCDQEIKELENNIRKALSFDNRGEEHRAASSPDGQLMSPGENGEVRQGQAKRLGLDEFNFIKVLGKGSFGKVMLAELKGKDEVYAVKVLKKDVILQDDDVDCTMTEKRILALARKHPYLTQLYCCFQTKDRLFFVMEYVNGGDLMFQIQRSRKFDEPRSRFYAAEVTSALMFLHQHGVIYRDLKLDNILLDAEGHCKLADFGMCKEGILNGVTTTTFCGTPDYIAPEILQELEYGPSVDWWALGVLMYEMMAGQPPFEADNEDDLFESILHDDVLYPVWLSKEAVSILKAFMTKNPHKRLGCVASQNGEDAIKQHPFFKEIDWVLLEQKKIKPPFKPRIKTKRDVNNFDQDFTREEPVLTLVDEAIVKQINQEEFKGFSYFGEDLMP

B1: fluorescein-labeled peptide 7 (peptide)
peptide: Ac-ARRGALR[Dap](Benzoyl(4-(pyrrol-1-yl)))A-{NH(CH2)2S-CH2CONH‑fluorescein‑5‑yl}
B2: Compound G (doubly alkylated analogue of F) (peptide)
peptide: {bis(2,3-dihydroxybenzyl)}-RRQG[Dap](4‑nitrohippuryl)FMYF-Cysteamide
modifications: reading uncertain

Experiments:
protein kinase Cα [1] = target: T4, protein kinase Cα (UniProt P17252 1-672, limits assumed); experiment: equilibrium dialysis with fluorescence read-out, 250 nM PKCα and 500 nM peptide 7, 4° C., without AMP-PNP
T4 construct: also called PKCα; PKC α
Experimental: (§1) Determination of K_D Values. […] All samples were prepared in a buffer containing 50 mM HEPES (pH 7.5), 0.8 mM CaCl_2.2H_2O, 13.6 mM MgCl_2.6H_2O, 0.56 mM EGTA.Na, phosphatidylserine (90 µg/mL), diacylglycerol (16 µg/mL), 4 mM Tris (pH 7.5), 0.2 mM DTT, BSA (146 µg/mL), 0.2 mM EDTA.4Na.2H_2O and AMP-PNP (a nonhydrolyzable ATP analogue) or without AMP-PNP at pH 7.5. Slide-A-Lyzer dialysis slide cassettes (Pierce, 10K MWCO, 0.1-0.5 mL capacity) were employed and contained 250 nM PKCα and 500 nM fluorescein-labeled peptide 7. The slide cassettes contained a final volume of 180 µL. The cassettes were placed in beaker containing a volume of buffer solution that was at least 500-fold greater than that of the sample volume in the dialysis slide cassette. Equilibrium dialysis experiments were performed over a period of 16 hr and maintained at 4° C. The fluorescence intensity of the solutions in the slide cassette (F_i) and in the beaker (F_o) was measured. The excitation wavelength for the fluorescein-labeled peptide 7 was 499 nm and the emission monitored at 519 nm. The K_D values were calculated from Equation 1.

protein kinase Cα [2] = target: T4, protein kinase Cα; experiment: equilibrium dialysis with fluorescence read-out, 250 nM PKCα and 500 nM peptide 7, 4° C., with AMP-PNP
Experimental: as §1

[3] = target: T1, protein kinase C τ (atypical; printed ι …); experiment: cell-based or functional assay
protein kinase C η [4] = target: T5, protein kinase C η (UniProt P24723 1-683, limits assumed); experiment: cell-based or functional assay
T5 sequence (P24723 whole entry): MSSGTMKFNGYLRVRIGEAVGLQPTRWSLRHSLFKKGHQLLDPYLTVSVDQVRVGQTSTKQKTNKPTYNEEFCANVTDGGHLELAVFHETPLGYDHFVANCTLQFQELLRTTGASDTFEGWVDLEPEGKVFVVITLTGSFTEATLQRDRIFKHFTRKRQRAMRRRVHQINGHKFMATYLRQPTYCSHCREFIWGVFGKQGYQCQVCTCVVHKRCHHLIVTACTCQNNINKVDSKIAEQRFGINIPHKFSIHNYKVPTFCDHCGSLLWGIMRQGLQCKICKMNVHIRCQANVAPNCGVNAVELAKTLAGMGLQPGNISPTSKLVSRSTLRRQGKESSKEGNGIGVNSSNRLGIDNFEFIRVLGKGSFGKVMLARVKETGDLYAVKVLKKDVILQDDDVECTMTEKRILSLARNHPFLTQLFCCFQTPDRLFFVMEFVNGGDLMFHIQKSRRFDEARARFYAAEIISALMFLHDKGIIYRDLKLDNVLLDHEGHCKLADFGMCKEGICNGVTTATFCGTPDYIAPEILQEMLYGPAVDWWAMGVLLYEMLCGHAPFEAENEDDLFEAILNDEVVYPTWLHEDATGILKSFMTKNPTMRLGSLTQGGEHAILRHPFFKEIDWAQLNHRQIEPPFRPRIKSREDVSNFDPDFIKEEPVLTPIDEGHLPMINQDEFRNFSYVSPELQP

protein kinase C ζ [5] = target: T2, protein kinase C ζ; experiment: cell-based or functional assay
protein kinase C βI [6] = target: T6, protein kinase C βI (UniProt P05771-1 1-671, limits assumed); experiment: cell-based or functional assay
T6 sequence (P05771 whole entry): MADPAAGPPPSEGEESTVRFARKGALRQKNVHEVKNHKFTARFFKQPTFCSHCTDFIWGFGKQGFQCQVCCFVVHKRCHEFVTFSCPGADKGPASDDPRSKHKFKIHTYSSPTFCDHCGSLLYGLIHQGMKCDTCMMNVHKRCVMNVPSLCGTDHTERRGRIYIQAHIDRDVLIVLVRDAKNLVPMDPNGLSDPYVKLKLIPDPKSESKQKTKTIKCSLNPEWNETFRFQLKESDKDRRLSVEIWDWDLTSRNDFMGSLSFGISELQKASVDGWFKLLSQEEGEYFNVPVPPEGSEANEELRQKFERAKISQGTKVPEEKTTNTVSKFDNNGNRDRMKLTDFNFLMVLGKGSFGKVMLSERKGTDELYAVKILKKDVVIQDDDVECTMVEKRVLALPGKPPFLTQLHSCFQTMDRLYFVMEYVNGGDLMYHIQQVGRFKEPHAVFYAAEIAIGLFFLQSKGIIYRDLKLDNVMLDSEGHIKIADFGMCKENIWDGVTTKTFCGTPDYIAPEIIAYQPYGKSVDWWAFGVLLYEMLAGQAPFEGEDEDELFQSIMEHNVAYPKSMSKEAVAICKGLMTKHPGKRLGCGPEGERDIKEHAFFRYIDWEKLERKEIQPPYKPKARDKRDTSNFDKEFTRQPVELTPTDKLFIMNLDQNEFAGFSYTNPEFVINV

protein kinase Cα [7] = target: T4, protein kinase Cα; experiment: cell-based or functional assay
protein kinase C ε [8] = target: T3, protein kinase C ε; experiment: cell-based or functional assay
protein kinase C θ [9] = target: T7, protein kinase C θ (UniProt Q04759 1-706, limits assumed); experiment: cell-based or functional assay
T7 sequence (Q04759 whole entry): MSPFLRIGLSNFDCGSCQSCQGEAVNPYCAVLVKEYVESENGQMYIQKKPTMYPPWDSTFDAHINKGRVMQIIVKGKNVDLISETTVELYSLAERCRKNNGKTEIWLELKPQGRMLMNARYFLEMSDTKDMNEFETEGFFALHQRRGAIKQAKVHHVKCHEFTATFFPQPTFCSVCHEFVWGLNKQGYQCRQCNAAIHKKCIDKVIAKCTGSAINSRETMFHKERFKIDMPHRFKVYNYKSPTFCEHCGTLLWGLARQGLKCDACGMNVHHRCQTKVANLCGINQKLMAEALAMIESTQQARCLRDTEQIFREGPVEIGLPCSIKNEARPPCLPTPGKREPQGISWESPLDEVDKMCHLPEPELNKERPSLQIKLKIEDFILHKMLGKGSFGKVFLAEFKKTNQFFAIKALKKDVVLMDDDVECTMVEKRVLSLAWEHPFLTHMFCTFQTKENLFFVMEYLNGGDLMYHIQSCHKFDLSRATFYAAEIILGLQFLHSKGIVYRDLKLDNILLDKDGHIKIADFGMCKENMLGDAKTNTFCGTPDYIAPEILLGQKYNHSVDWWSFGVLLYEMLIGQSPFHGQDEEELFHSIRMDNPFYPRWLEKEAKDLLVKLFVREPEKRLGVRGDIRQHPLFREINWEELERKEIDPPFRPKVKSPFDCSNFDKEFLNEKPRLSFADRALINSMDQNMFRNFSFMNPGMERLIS

protein kinase C γ [10] = target: T8, protein kinase C γ (UniProt P05129 1-697, limits assumed); experiment: cell-based or functional assay
protein kinase C η [11] = target: T5, protein kinase C η; experiment: cell-based or functional assay; remark: listed apart in the source
protein kinase C ζ [12] = target: T2, protein kinase C ζ; experiment: cell-based or functional assay; remark: listed apart in the source
protein kinase C βI [13] = target: T6, protein kinase C βI; experiment: cell-based or functional assay; remark: listed apart in the source
protein kinase Cα [14] = target: T4, protein kinase Cα; experiment: cell-based or functional assay; remark: listed apart in the source
protein kinase C ε [15] = target: T3, protein kinase C ε; experiment: cell-based or functional assay; remark: listed apart in the source
protein kinase C θ [16] = target: T7, protein kinase C θ; experiment: cell-based or functional assay; remark: listed apart in the source
protein kinase C γ [17] = target: T8, protein kinase C γ; experiment: cell-based or functional assay; remark: listed apart in the source
protein kinase C ζ [18] = target: T2, protein kinase C ζ; experiment: PKC ζ 33P kinase assay, double reciprocal plots at variable peptide substrate; competitive pattern
Experimental: K_i determinations. […] ATP for radioactive detection. 10 µL enzyme diluted buffer containing 20 mM Tris (pH 7.5), PKC (10 ng/well), 0.5 mM DTT, BSA (375 µg/mL) and 0.5 mM EDTA.4Na.2H_2O was added to initiate the reaction. Total reaction volume in each well was 50 µL. All the wells were tested in the same plate and each concentration was tested in triplicate. Subsequent assay workup and scintillation counting were performed as described above. Double reciprocal plots were obtained at different concentrations of substrates. K_i values were calculated using Enzyme Kinetics, SigmaPlot (SPSS Inc.).

| Binder | Kd (protein kinase Cα [1]) [nM] | Kd (protein kinase Cα [2]) [nM] | Fold selectivity (IC50), PKC ζ = 1 [3] [fold] | Fold selectivity (IC50), PKC ζ = 1 (protein kinase C η [4]) [fold] | Fold selectivity (IC50), PKC ζ = 1 (protein kinase C ζ [5]) [fold] | IC50 or Ki of the most potently inhibited isoform (protein kinase C ζ [5]) [nM] | Fold selectivity (IC50), PKC ζ = 1 (protein kinase C βI [6]) [fold] | Fold selectivity (IC50), PKC ζ = 1 (protein kinase Cα [7]) [fold] | Fold selectivity (IC50), PKC ζ = 1 (protein kinase C ε [8]) [fold] | Fold selectivity (IC50), PKC ζ = 1 (protein kinase C θ [9]) [fold] | Fold selectivity (IC50), PKC ζ = 1 (protein kinase C γ [10]) [fold] | IC50, PKC kinase assay (33P, peptide substrate) (protein kinase C η [11]) [µM] | IC50, PKC kinase assay (33P, peptide substrate) (protein kinase C ζ [12]) [pM] | IC50, PKC kinase assay (33P, peptide substrate) (protein kinase C βI [13]) [µM] | IC50, PKC kinase assay (33P, peptide substrate) (protein kinase Cα [14]) [µM] | IC50, PKC kinase assay (33P, peptide substrate) (protein kinase C ε [15]) [µM] | IC50, PKC kinase assay (33P, peptide substrate) (protein kinase C θ [16]) [µM] | IC50, PKC kinase assay (33P, peptide substrate) (protein kinase C γ [17]) [µM] | Ki (protein kinase C ζ [18]) [nM] |
| --- | --- | --- | --- | --- | --- | --- | --- | --- | --- | --- | --- | --- | --- | --- | --- | --- | --- | --- | --- |
| B1 | 1800 | 203 |  |  |  |  |  |  |  |  |  |  |  |  |  |  |  |  |  |
| B2 |  |  | 1490 | 2040 | 1 | 7.5 | 730 | 6330 | 4600 | 2230 | 5090 | 15.3 | 750 | 5.5 | 47.5 | 34.5 | 16.7 | 38.2 | 3.9 |
